Measurements from paper PMC9536298.

Key:
[1] = target: survival motor neuron protein (SMN), endogenous human (human (endogenous in human fibroblasts)) (UniProt Q16637); assay: co-IP
[2] = target: zinc finger protein ZPR1, endogenous human (human (endogenous in HeLa and human fibroblasts)) (UniProt O75312); assay: co-IP
zinc finger protein ZPR1, endogenous human (human (endogenous in HeLa and human fibroblasts)), sequence (O75312 whole entry): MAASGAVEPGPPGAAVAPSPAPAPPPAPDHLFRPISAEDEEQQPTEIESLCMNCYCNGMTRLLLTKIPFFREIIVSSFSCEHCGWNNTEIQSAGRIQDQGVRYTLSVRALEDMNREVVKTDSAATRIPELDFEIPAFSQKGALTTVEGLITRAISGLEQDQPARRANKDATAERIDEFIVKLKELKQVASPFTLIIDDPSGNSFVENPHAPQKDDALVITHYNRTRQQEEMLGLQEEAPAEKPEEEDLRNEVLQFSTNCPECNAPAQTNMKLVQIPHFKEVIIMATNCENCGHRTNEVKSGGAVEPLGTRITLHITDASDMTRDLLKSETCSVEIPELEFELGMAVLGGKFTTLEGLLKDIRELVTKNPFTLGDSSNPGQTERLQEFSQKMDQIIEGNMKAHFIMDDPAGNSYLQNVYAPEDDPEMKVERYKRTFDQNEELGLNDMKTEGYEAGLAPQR

survival motor neuron protein (SMN), endogenous human (human (endogenous in human fibroblasts)), sequence (Q16637 whole entry): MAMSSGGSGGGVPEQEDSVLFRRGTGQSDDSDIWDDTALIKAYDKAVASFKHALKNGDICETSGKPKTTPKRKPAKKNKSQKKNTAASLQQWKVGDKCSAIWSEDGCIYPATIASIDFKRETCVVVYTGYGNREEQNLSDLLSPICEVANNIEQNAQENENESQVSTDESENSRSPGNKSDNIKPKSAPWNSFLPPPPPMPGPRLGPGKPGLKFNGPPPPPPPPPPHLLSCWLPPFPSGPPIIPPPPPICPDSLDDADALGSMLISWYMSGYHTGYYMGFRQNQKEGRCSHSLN

co-IP level with ZPR1 in SMA cells, % of normal cells [2]: 44.8%
Substance: senataxin (SETX), endogenous human, Q7Z333 1-2677
co-IP level with SMN in SMA cells, % of normal cells [1]: 25.8%
